The data set has as its system C[S+](CC[C@H](N)C(=O)O)C[C@H]1O[C@@H](n2cnc3c(N)ncnc32)[C@H](O)[C@@H]1O. Put plainly: purified protein. The note with it: catalytic SET domain; varied: cofactor.

The results in this text go back to article PMC10718286.

Consider “SETDB1 (full-length, SETDB1-FL) (Homo sapiens)”, for which the kcat was 8.06e-05 s⁻¹ and the kcat/Km came to 88.9 M⁻¹ s⁻¹.
